Changes are numbered by the printed parent chain. Values belong to the binder of their own block, whether it stands above or below them.
Tests used:
[1] = target: T1, Recombinant human 4-1BB/Fc Chimera (R&D Systems #838-4B) (human, UniProt Q07011 24-186); experiment: ELISA on coated human 4-1BB IgG1Fc chimera
T1 construct: Bought protein; also called Human 4-1BB IgG1Fc chimera; not shown: Factor Xa-cleavable junction, human IgG1 Fc and 6xHistidine tag of the bought chimera

Hu41BB N&E.6 = target: T2, Hu41BB N&E.6 (human, UniProt Q07011 18-255); experiment: FACS, 100 nM antibody, transduced 300-19 cell pools
T2 construct: Human-to-dog mutant of the human 4-1BB extracellular domain, expressed on transduced 300-19 cells
T2 chain: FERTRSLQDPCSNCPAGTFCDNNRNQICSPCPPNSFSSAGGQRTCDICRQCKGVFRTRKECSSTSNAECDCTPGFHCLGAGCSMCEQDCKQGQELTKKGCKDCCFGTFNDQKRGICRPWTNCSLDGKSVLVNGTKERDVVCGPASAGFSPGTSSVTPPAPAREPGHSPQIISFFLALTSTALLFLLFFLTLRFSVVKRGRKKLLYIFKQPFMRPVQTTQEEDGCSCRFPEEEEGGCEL

Hu41BB N&E.5 = target: T3, Hu41BB N&E.5 (human, UniProt Q07011 18-255); experiment: as above
T3 construct: Human-to-dog mutant of the human 4-1BB extracellular domain, expressed on transduced 300-19 cells; also called 4-1BB Mutant N&E.5
T3 chain: T2 chain with K98Q, C104R, R117Q, R137S, V139A, A144S, S145P, G147D, F148L, T152A

Hu41BB N&E = target: T4, Hu41BB N&E (human, UniProt Q07011 18-255); experiment: as above
T4 construct: Human-to-dog mutant of the human 4-1BB extracellular domain, expressed on transduced 300-19 cells
T4 chain: T2 chain with N13K, A39T, G40S, R43K, T44A, A144S, S145P, G147D, F148L, T152A

Hu41BB N&E.1 = target: T5, Hu41BB N&E.1 (human, UniProt Q07011 18-255); experiment: as above
T5 construct: Human-to-dog mutant of the human 4-1BB extracellular domain, expressed on transduced 300-19 cells
T5 chain: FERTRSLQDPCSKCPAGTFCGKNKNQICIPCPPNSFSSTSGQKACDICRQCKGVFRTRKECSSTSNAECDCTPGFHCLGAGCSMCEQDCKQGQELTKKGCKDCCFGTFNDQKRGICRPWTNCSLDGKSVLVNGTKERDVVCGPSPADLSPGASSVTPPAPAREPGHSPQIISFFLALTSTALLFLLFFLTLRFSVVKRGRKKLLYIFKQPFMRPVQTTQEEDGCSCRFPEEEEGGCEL

human 4-1BB on cells [2] = target: T6, human 4-1BB on cells (human, UniProt Q07011 18-255); experiment: FACS on transfected cells
T6 construct: Expressed on stably transfected HEK293/HEK293T cells, transduced 300-19 cells or PHA stimulated human PBMC; also called h41BB; hu4-1BB

[3] = target: T1, Recombinant human 4-1BB/Fc Chimera (R&D …); experiment: ligand competition ELISA, 4-1BB_IgG1Fc to plate-bound 4-1BBL (competitor 4-1BBL)
human 4-1BB on cells [4] = target: T6, human 4-1BB on cells; experiment: FACS on HEK293T cells expressing human 4-1BB, IgG1
OX-40 on 300.19 cells = target: T7, OX-40 on 300.19 cells (UniProt P43489 29-277, limits assumed); experiment: FACS on 300.19 cells expressing OX-40
T7 construct: whole, on cells; also called CD134; TNFRSF4
T7 sequence (looked up): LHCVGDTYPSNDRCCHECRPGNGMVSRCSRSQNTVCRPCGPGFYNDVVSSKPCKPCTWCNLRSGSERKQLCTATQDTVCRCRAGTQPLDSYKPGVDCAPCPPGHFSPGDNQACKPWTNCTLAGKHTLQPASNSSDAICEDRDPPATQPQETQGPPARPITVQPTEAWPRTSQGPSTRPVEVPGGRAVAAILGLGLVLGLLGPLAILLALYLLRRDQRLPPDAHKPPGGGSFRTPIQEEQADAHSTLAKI

CD40 on 300.19 cells = target: T8, CD40 on 300.19 cells (UniProt P25942 21-277, limits assumed); experiment: FACS on 300.19 cells expressing CD40
T8 construct: whole, on cells; also called TNFRSF5; 300.19 CD40
T8 sequence (P25942 21-277 limits assumed): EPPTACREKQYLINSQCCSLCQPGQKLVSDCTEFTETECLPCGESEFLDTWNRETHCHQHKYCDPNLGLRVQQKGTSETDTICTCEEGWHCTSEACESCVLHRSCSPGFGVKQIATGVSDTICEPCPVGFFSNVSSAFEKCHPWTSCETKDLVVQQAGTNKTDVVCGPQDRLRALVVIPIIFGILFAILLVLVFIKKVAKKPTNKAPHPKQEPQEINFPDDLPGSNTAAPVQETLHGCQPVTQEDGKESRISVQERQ

[5] = target: T1, Recombinant human 4-1BB/Fc Chimera (R&D …); experiment: ELISA on directly coated human 4-1BB/Fc, IgG1
human 4-1BB on cells [6] = target: T6, human 4-1BB on cells; experiment: FACS on HEK293 cells expressing human 4-1BB
[7] = target: T9, human 4-1BB (recombinant antigen, construct not stated) (human, UniProt Q07011 24-186); experiment: SPR (Biacore 3000), Fab analyte on amine-coupled human 4-1BB
T9 construct: It may be the 4-1BB/Fc chimera; also called CD137/HUMAN 4-1BB; unlabeled human 4-1BB

[8] = target: T1, Recombinant human 4-1BB/Fc Chimera (R&D …); experiment: ELISA on directly coated human 4-1BB/Fc
Hu41BB N&E.3 = target: T10, Hu41BB N&E.3 (human, UniProt Q07011 18-255); experiment: FACS, 100 nM antibody, transduced 300-19 cell pools
T10 construct: Human-to-dog mutant of the human 4-1BB extracellular domain, expressed on transduced 300-19 cells
T10 chain: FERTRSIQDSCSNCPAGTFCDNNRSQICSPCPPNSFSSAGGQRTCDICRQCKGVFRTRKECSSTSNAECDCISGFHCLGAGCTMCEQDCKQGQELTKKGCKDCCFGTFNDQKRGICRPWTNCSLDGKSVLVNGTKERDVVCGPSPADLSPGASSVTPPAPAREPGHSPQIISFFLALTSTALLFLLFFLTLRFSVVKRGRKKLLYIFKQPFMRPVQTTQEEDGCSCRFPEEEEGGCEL

Hu41BB N&E.4 = target: T11, Hu41BB N&E.4 (human, UniProt Q07011 18-255); experiment: as above
T11 construct: Human-to-dog mutant of the human 4-1BB extracellular domain, expressed on transduced 300-19 cells
T11 chain: T5 chain with L7I, P10S, N25S, K52E, R58K, E60V, T72I, P73S, S83T

[9] = target: T12, human 4-1BB extracellular portion, amino acids 24-186 (Fc cleaved off with Factor Xa) (human, UniProt Q07011 24-186); experiment: SPR (Biacore 3000), antibody amine-coupled, 4-1BB 24-186 as analyte, 25 C
T12 construct: Made from the R&D Systems 4-1BB/Fc chimera by Factor Xa cleavage; also called recombinant human 4-1BB; the 4-1BB

B1: MOR-7361 (IgG1) (antibody, V domains shown)
VH: QVQLVESGGGLVQPGGSLRLSCAASGFTFSDYYMHWVRQAPGKGLEWVSVISGSGSNTYYADSVKGRFTISRDNSKNTLYLQMNSLRAEDTAVYYCARLYAQFEGDFWGQGTLVTVSS
VL: DIELTQPPSVSVAPGQTARISCSGDNIGSKYVSWYQQKPGQAPVLVIYSDSERPSGIPERFSGSNSGNTATLTISGTQAEDEADYYCQSWDGSISRVFGGGTKLTVL
notes: Human IgG1 format, lambda light chain; also called 7361_G1
EC50 [1]: 0.091 nM
binding result (Hu41BB N&E.6): binds
binding result (Hu41BB N&E.5): binds
binding result (Hu41BB N&E): binds
binding result (Hu41BB N&E.1): binds
fold selectivity for 4-1BB versus OX-40 and CD40 (human 4-1BB on cells [2]): ≥ 100 fold
% max inhibition [3]: 100%
IC50 [3]: 0.172 nM
EC50 (human 4-1BB on cells [4]): 0.8 nM
binding result (OX-40 on 300.19 cells): no binding (tested: 1000 nM)
binding result (CD40 on 300.19 cells): no binding (tested: 1000 nM)
EC50 [5]: 0.3 nM

B3: MOR-6032 (IgG1) (antibody, V domains shown)
VH: QVQLVQSGAEVKKPGSSVKVSCKASGGTFNSYAISWVRQAPGQGLEWMGGIIPGFGTANYAQKFQGRVTITADESTSTAYMELSSLRSEDTAVYYCARKNEEDGGFDHWGQGTLVTVSS
VL: DIELTQPPSVSVAPGQTARISCSGDNLGDYYASWYQQKPGQAPVLVIYDDSNRPSGIPERFSGSNSGNTATLTISGTQAEDEADYYCQTWDGTLHFVFGGGTKLTVL
notes: Human IgG1 format, lambda light chain; also called 6032_G1
binding result (Hu41BB N&E.3): binds
binding result (OX-40 on 300.19 cells): no binding (tested: 1000 nM)
binding result (CD40 on 300.19 cells): no binding (tested: 1000 nM)

B5: MOR-7480.2 (IgG1) (antibody, V domains shown)
VH: EVQLVQSGAEVKKPGESLRISCKGSGYSFSTYWISWVRQMPGKGLEWMGKIYPGDSYTNYSPSFQGQVTISADKSISTAYLQWSSLKASDTAMYYCARGYGIFDYWGQGTLVTVSS
VL: SYELTQPPSVSVSPGQTASITCSGDNIGDQYAHWYQQKPGQSPVVVIYQDKNRPSGIPERFSGSNSGNTATLTISGTQAMDEADYYCATYTGFGSLAVFGGGTKLTVL
notes: Human IgG1 format
binding result (Hu41BB N&E.3): binds
binding result (Hu41BB N&E.4): binds

B6: MOR-7480 (IgG2) (antibody, V domains shown)
VH: B5 VH with E1Q, R19K
VL: DIELTQPPSVSVAPGQTARISCSGDNIGDQYAHWYQQKPGQAPVVVIYQDKNRPSGIPERFSGSNSGNTATLTISGTQAEDEADYYCATYTGFGSLAVFGGGTKLTVLG
Kd [9]: 0.57 nM
koff [9]: 0.00023 s⁻¹
kon [9]: 450000 M⁻¹ s⁻¹
t1/2 [9]: 50 min
EC50 [1]: 0.122 nM
% max inhibition [3]: 98%
IC50 [3]: 0.125 nM

B8: MOR-7483 (IgG2) (antibody, V domains shown)
VH: B5 VH with E1Q, R19K
VL: B6 VL with A88S, G92F, F93V, S95F, L96T, A97T
notes: also called 7483_G2
binding result (Hu41BB N&E.3): binds
binding result (Hu41BB N&E.4): binds

More lines, now with the values ahead:

EC50 (human 4-1BB on cells [6]): 105 nM
Kd [7]: 118 nM
EC50 [8]: 0.6 nM
B2: Fab-7361 (Fab, V domains shown)
VH: B1 VH
VL: B1 VL

binding result (Hu41BB N&E.3): binds
binding result (Hu41BB N&E.4): binds
binding result (OX-40 on 300.19 cells): no binding (tested: 1000 nM)
binding result (CD40 on 300.19 cells): no binding (tested: 1000 nM)
B4: MOR-7483 (IgG1) (antibody, V domains shown)
VH: B5 VH with E1Q, R19K
VL: DIELTQPPSVSVAPGQTARISCSGDNIGDQYAHWYQQKPGQAPVVVIYQDKNRPSGIPERFSGSNSGNTATLTISGTQAEDEADYYCSTYTFVGFTTVFGGGTKLTVL
notes: Human IgG1 format, lambda light chain; also called 7483_G1

Kd [9]: 28 nM
koff [9]: 0.022 s⁻¹
kon [9]: 800000 M⁻¹ s⁻¹
B7: MOR-7483.1 (IgG1) (antibody, V domains shown)
VH: B5 VH
VL: B5 VL with V45L, A88S, G92F, F93V, S95F, L96T, A97T
notes: Germlined version of MOR-7483, human IgG1 format
